We go through 1 substance from US20040241820A1.

This experiment concerns the target Savinase® (subtilisin 309) (UniProt P29600). Put plainly: cell-based or functional assay.

Where only a bound is given, the exact number is not on record here.

UniProt P29600, sequence (P29600 whole entry): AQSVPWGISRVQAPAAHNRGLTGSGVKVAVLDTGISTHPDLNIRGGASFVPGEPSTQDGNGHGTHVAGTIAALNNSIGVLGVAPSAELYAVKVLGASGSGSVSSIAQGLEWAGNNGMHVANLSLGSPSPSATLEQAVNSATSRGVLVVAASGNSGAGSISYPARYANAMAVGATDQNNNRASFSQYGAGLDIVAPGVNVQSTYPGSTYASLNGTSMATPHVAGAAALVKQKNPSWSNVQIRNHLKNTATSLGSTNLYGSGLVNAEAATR

“trypsin inhibitor type IV-0 (Ovo-inhibitor), Sigma T-1886 (from UniProt P10184 69-517)”: the RA (%) (Residual Activity in the Ovo-inhibition Assay; hydrolysis of Suc-Ala-Ala-Pro-Phe-pNA with versus without inhibitor) was below 5%.
